Where no end group is shown, it is not given here. The star is where a group is joined. Galloyl = O=C(c1cc(O)c(O)c(O)c1)*
Molecular target: mushroom tyrosinase (1,500 units/ml, Sigma) (mushroom)
Assay: cell-based or functional assay

| Binder | Inhibition (%) of tyrosinase activity (absorbance at 490 nm, L-tyrosine substrate, compound at 100 µM) [%] |
| --- | --- |
| KECG (also: two galloyl groups, attachment sites shown only in formula IV) [Digalloyl-tetrapeptide (lysyl-glutamyl-cysteinyl-glycine)] | 52 |
| Galloyl-KECG [Galloyl-tetrapeptide (lysyl-glutamyl-cysteinyl-glycine)] | 40 |
| Galloyl-YGGFLRKYPK [Galloyl-decapeptide (tyrosyl-glycyl-glycyl-phenylalanyl-leucyl-arginyl-lysyl-tyrosyl-prolyl-lysine)] | 5 |
| Galloyl-Tyr-His-Tyr [Galloyl-tripeptide (tyrosyl-histidyl-tyrosine)] | 15 |
| KYHY (also: two galloyl groups, attachment sites not given here) [Digalloyl-tetrapeptide (lysyl-tyrosyl-histidyl-tyrosine)] | 21 |
| Galloyl-Glu-Cys-Gly [Galloyl-tripeptide (glutamyl-cysteinyl-glycine)] | 34 |

From US8435548 (BIO FD AND C, dated 2013)
